Patent US12503479B2, “Phospholipid-flavagline conjugates and methods of using the same for targeted cancer therapy” (Cellectar Biosciences, Inc., priority 2018, dated 2025)
Where two headings read alike, the source gives them in different places.

Key:
[1] = type: in vivo, mice
Method: Listed in Table 5 are the doses administered to the mice, and how many mice were alive after treatment (“3/3” indicates 3 out of 3 mice were alive). […] MTD for CLR 1865 was between 5 and 10 mg/kg.

[2] = test system: NHDF (normal human dermal fibroblasts); experiment: cells; type: cell-based
[3] = test system: A549 (human lung adenocarcinoma) cells; experiment: Cytotoxicity of parent compound versus PDC, tumor cells (Example 8); type: cell-based; settings: increasing concentrations; for Cytotoxic potency to A549 cells versus NHDF cells (selectivity): FIG. 3
Method: (§1) A549 (human lung adenocarcinoma) cells and normal human dermal fibroblasts (NHDF) were plated in 96 well dishes overnight. […] The difference between the cytotoxicity of the PDC molecule for tumor cells and that of the normal cells may have indicated a potential to improve the parent molecules therapeutic index.

[4] = test system: normal human dermal fibroblasts (NHDF); experiment: Cytotoxicity of parent compound versus PDC, normal cells (Example 8); type: cell-based; settings: increasing concentrations
Method: as §1

A375 and A549 cells = experiment: Levels of FLV3 in cell lysate and growth media (LC/MS); type: cell-based, human
Method: FIG. 11 is a graph of concentration versus time for FLV3 detected in the cytosol (normalized to the cytosolic volume) in A375 (human melanoma) and A549 (human lung adenocarcinoma) cell lines.
The levels of FLV3 in cell lysate and growth media were measured using LC/MS. […] Levels of intracellular FLV3 appeared to plateau at 24 hours, while extracellular levels of FLV3 continued to increase.

[5] = test system: HCT 116 cells (human colon cancer); type: in vivo; parameters: dose or concentration left out as unconfirmed; settings: HCT 116 tumor model; three doses; FIG. 9
[6] = test system: A549 (human lung adenocarcinoma); experiment: cells; type: cell-based; settings: various concentrations; A549 and NHDF; FIG. 8

Method for Plasma stability, human: (§2) A small amount of molecule was exposed to plasma, and the plasma was then analyzed via HPLC or MS to determine if the molecule was degraded.
Method for Plasma stability, mouse: as §2

Row | Compound | Human half-life (Plasma stability, human) [min] | Human plasma stability (Plasma stability, human) | Mouse half-life (Plasma stability, mouse; mouse plasma) [min] | Mice alive after treatment ([1]; Dose 0.1 mg/kg) | Mice alive after treatment ([1]; Dose 0.25 mg/kg) | Mice alive after treatment ([1]; Dose 0.5 mg/kg) | Mice alive after treatment ([1]; Dose 1.0 mg/kg) | Mice alive after treatment ([1]; Dose 5.0 mg/kg) | Mice alive after treatment ([1]; Dose 10.0 mg/kg) | Tolerability compared to FLV3 alone ([1]; mice) | Cytotoxic potency in A549 cells relative to the parent molecule [3] | Cytotoxic potency to A549 cells versus NHDF cells (selectivity) [3] | Cytotoxic effect on NHDF cells [4] | also measured
1 | COc1ccc([C@@]23Oc4cc(OCCCCNC(=O)OCC(C)(C)SSCCCCCCCCCCCCCCCCCCOP(=O)([O-])OCC[N+](C)(C)C)cc(OC)c4[C@]2(O)[C@H](O)[C@H](C(=O)O)[C@H]3c2ccccc2)cc1 [CLR 1865] | >400 | excellent human plasma stability | 199 | 3/3 | 3/3 | 3/3 | 3/3 | 3/3 | 2/3 | excellent improvement in tolerability compared to FLV3 alone | near similar potency to the parent molecule in A549 cells | selectivity for the A549 cells | almost no effect on NHDF cells until the highest concentrations | Time stable in mouse plasma (Plasma stability, mouse; mouse plasma): 3.3 h; In vivo therapeutic index ([1]; mice): ≥ 12.5; Therapeutic Index (TI) (value in parentheses) ([2]; from the NHDF value in parentheses): 37.3; Therapeutic Index (TI) ([2]; not defined, equals NHDF IC50 over lowest tumor line IC50): 11.64
2 | COc1ccc([C@]23Oc4cc(OCCCCN)cc(OC)c4[C@@]2(O)[C@@H](O)[C@@H](C(=O)O)[C@@H]3c2ccccc2)cc1 [FLV1, reference compound] |  |  |  |  |  |  |  |  |  |  |  | near equal potency to the A549 cells as it did to the NHDF cells |  | 
3 | COC(=O)[C@H]1[C@@H](O)[C@@]2(O)c3c(OC)cc(OCCCCNC(=O)OCC(C)(C)SSCCCCCCCCCCCCCCCCCCOP(=O)([O-])OCC[N+](C)(C)C)cc3O[C@@]2(c2ccc(OC)cc2)[C@@H]1c1ccccc1 [CLR 1852] | >400 | excellent human plasma stability | >400 | 3/3 | 3/3 | 3/3 | 3/3 | 3/3 | 3/3 | excellent improvement in tolerability compared to FLV3 alone | near similar potency to the parent molecule in A549 cells | selectivity for the A549 cells | almost no effect on NHDF cells until the highest concentrations | Time at which levels of intracellular FLV3 plateau (A375 and A549 cells): 24 h; Levels of FLV3 in the growth media (A375 and A549 cells; after 24 hours): Moderate levels; Levels of FLV3 in the cell lysate (A375 and A549 cells; after 24 hours, FIG. 11): high levels; Time stable in plasma (Plasma stability, mouse; plasma, species not stated): at least 7 hours; Maximum tolerated dose (MTD) ([1]; mice): did not achieve a maximum tolerated dose; In vivo therapeutic index ([1]; mouse, in vivo): at least 25; Therapeutic Index (TI) [2]: 360; Therapeutic Index (TI) (value in parentheses) [2]: 915; Time from which tumor volume was reduced compared to vehicle [5]: around 27 days; Cytotoxic potency compared to FLV3 alone [6]: modest loss in potency compared to FLV3 alone
